Measured values: PMC8200828, “Phylogenetic and Structural Analysis of NIN-Like Proteins With a Type I/II PB1 Domain That Regulates Oligomerization for Nitrate Response” (Frontiers in Plant Science, 2021)

Legend:
[1] = target: the molecule itself; assay: dynamic light scattering; protein at 2 mg/mL, after SEC, 25 °C; self-association
[2] = target: the molecule itself; assay: SEC; Superdex S-75 in buffer C (20 mM Tris pH 8.8, 0.5 M NaCl, 10% glycerol, 5 mM GSH, 1 mM TCEP), calibrated with gel filtration standard markers; self-association

B1: Arabidopsis thaliana NLP7 (AtNLP7) PB1 domain, wild type (domain or fragment, UniProt Q84TH9 863-945, looked up)
chain: TVTIKASYKDDIIRFRISSGSGIMELKDEVAKRLKVDAGTFDIKYLDDDNEWVLIACDADLQECLEIPRSSRTKIVRLLVHDV
notes: NIN-like protein 7 (AtNLP7), Arabidopsis thaliana, PB1 domain at the C-terminus of AtNLP7; PCR-amplified from plasmid pDL2Nx-NLP7 PB1 with the printed primers PB1-EcoRI and PB1-HindIII, subcloned into pET28a; A thrombin cleavage site follows the N-terminal His6 tag; no cleavage step is described and the purified protein is called 6xHis-NLP7 PB1 (15.6 kDa); also called NLP7 PB1wt; 6xHis-NLP7 PB1 …
For B1, the “stoichiometry N” value [1] was 4 and the “stoichiometry N” value [2] was 2.
